Drawing on patent US20050032064, this text covers activity for one substance.

The data set deals with PPAR GAMMA (Mus musculus) (UniProt P37238). The experiment in a line: cell_activity. Conditions: HepG2 per text (Cos per legend); induction vs empty pSG5; amplified by rosiglitazone.

Substance “(Rev-DR2)x2 SV40 promoter luciferase reporter” came in with an activity of 2.5 fold.
